Data: patent publication US20180355009A1

T1: human IL-22 receptor complex IL22R1 and IL10R2, overexpressed on HEK 293 cells (human) (UniProt Q8N6P7)
T1 sequence (looked up) 1: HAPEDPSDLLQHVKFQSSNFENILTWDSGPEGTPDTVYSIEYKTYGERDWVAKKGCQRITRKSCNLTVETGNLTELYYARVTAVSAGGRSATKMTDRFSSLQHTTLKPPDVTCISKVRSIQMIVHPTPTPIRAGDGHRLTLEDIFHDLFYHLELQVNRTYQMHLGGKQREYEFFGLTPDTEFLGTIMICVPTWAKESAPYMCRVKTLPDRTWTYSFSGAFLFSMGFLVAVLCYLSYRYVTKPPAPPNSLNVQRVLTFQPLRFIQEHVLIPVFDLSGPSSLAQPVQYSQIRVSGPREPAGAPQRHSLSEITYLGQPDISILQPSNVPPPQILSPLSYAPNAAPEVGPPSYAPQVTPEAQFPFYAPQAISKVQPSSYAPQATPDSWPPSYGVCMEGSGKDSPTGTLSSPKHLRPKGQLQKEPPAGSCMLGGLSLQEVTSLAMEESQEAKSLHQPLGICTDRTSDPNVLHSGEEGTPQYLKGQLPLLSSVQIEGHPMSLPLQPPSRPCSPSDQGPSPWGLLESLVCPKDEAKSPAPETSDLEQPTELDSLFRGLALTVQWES
T1 sequence (looked up) 2: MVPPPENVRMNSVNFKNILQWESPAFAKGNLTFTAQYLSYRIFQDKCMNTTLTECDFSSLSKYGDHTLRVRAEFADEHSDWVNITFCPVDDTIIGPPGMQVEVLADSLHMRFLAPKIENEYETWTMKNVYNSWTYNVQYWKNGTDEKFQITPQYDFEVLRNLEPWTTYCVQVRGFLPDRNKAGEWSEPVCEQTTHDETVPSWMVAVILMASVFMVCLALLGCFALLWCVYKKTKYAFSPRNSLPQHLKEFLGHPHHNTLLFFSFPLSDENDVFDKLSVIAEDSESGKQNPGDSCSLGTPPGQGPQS

B1: IL-22 Fc construct 24 (huIgG1, linker …, produced in E. coli) (Fc fusion, not shown: a dimerising Fc or GST)
chain: APISSHCRLDKSNFQQPYITNRTFMLAKEASLADNNTDVRLIGEKLFHGVSMSERCYLMKQVLNFTLEEVLFPQSDRFQPYMQEVVPFLARLSNRLSTCHIEGDDLHIQRNVQKLKDTVKKLGESGEIKAIGELDLLFMSLRNACIEPKSSDKTHT
B2: IL-22 Fc construct 18 (huIgG1, linker …, N297G, produced in CHO) (Fc fusion, not shown: a dimerising Fc or GST)
chain: APISSHCRLDKSNFQQPYITNRTFMLAKEASLADNNTDVRLIGEKLFHGVSMSERCYLMKQVLNFTLEEVLFPQSDRFQPYMQEVVPFLARLSNRLSTCHIEGDDLHIQRNVQKLKDTVKKLGESGEIKAIGELDLLFMSLRNACIKKVEPKSSDKTHT
B3: IL-22 Fc construct 12 (huIgG1, linker …, produced in CHO) (Fc fusion, not shown: a dimerising Fc or GST)
chain: APISSHCRLDKSNFQQPYITNRTFMLAKEASLADNNTDVRLIGEKLFHGVSMSERCYLMKQVLNFTLEEVLFPQSDRFQPYMQEVVPFLARLSNRLSTCHIEGDDLHIQRNVQKLKDTVKKLGESGEIKAIGELDLLFMSLRNACIDKKVEPKSSDKTHT
B4: IL-22 Fc construct 13 (huIgG1, linker …, produced in CHO) (Fc fusion, not shown: a dimerising Fc or GST)
chain: APISSHCRLDKSNFQQPYITNRTFMLAKEASLADNNTDVRLIGEKLFHGVSMSERCYLMKQVLNFTLEEVLFPQSDRFQPYMQEVVPFLARLSNRLSTCHIEGDDLHIQRNVQKLKDTVKKLGESGEIKAIGELDLLFMSLRNACIKVDKKVEPKSSDKTHT

The binders below were run against T1, human IL-22 receptor complex IL22R1 and IL10R2, overexpressed on HEK 293 cells (human) (assay: cell-based or functional assay).
B1 gave an EC50 (pM), STAT3 luciferase reporter assay of 16 pM.
With B2 the EC50 (pM), STAT3 luciferase reporter assay was 20 pM.
Work on B3 yielded an EC50 (pM), STAT3 luciferase reporter assay of 25 pM.
For B4, the EC50 (pM), STAT3 luciferase reporter assay was 25 pM.
